Data: patent US20220112276A1 (Janssen / Centocor, published 2022)

Columns and labels:
Assay in all cases: SPR, VHH captured by anti-Fc, ECD analyte
[1] = molecular target: T1, rat pIgR extracellular domain (rat, UniProt P15083 19-643)
T1 construct: extracellular domain
T1 sequence (looked up): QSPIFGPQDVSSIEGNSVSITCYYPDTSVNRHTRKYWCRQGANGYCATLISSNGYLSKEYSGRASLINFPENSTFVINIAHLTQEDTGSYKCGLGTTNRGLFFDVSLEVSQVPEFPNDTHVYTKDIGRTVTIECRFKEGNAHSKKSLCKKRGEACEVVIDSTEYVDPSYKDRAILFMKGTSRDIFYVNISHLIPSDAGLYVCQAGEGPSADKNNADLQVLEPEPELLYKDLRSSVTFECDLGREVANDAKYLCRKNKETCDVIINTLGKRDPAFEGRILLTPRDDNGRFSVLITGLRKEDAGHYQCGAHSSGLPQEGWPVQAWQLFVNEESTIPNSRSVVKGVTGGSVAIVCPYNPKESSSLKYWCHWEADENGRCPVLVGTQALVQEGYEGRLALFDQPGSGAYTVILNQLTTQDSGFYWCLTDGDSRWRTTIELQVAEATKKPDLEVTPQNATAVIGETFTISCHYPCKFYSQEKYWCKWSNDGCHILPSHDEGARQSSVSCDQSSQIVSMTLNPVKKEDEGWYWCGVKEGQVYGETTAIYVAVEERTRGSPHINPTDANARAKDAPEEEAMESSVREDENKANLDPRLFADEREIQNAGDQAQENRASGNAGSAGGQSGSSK
Outline: (§1)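 Anti-human Fc surface captured VHH at 0.5 ug/ml (~200-300 RU); running buffer HBSP with 100 ug/ml BSA, 30 μL/min. Single-cycle kinetics with ECD injected low to high from 30 nM in 3-fold dilutions, dissociation 30 min. Double-referenced data globally fit to 1:1 Langmuir model for kon, koff, KD.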

[2] = molecular target: T2, mouse pIgR extracellular domain (ECD) (mouse, UniProt O70570 19-645)
T2 construct: Bought from R&D Systems (Cat 2800-PG-050); also called mpIgR ECD
T2 sequence: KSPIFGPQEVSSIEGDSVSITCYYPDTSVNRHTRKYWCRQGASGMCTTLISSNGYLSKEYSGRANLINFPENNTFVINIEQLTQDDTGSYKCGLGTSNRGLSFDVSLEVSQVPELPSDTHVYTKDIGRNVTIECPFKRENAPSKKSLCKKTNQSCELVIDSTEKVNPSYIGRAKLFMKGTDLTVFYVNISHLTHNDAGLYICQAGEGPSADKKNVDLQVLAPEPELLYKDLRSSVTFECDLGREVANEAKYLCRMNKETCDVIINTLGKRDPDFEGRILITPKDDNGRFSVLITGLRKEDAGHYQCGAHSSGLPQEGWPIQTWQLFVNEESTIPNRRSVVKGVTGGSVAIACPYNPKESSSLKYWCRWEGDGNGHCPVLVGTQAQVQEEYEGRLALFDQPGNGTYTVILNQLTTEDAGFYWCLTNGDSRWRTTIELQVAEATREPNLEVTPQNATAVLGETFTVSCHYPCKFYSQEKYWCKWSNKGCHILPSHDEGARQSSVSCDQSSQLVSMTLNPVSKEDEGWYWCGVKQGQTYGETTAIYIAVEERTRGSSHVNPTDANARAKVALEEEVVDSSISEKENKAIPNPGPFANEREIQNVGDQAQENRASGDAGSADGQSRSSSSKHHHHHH
Outline: as §1

[3] = molecular target: T3, human pIgR extracellular domain (ECD) (human, UniProt P01833 19-638)
T3 construct: Bought from R&D Systems (Cat 2717-PG-050); also called hpIgR ECD
Outline: as §1

[4] = molecular target: T4, cynomolgus monkey pIgR extracellular domain (cynomolgus monkey, UniProt A0A2K5WMU9 19-638)
T4 construct: extracellular domain
Outline: as §1

T4 sequence (A0A2K5WMU9 entry or part of it): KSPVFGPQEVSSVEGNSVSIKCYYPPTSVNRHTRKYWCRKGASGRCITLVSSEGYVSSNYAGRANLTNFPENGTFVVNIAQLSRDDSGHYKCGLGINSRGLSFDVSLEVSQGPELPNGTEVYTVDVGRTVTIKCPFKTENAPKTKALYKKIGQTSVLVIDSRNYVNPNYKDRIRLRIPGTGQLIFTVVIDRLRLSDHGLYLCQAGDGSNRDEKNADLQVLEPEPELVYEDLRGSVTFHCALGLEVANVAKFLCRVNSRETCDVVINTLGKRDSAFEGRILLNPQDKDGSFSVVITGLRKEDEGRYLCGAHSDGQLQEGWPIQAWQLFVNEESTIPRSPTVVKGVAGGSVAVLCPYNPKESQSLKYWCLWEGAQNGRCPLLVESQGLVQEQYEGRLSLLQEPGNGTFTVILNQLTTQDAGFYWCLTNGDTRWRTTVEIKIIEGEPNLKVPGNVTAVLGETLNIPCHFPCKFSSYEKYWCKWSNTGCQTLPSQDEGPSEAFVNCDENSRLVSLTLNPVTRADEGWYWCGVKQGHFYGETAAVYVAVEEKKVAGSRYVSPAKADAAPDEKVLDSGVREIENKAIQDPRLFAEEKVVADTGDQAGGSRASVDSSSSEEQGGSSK
T3 sequence (P01833 other isoform, or with tags, fused parts or gaps): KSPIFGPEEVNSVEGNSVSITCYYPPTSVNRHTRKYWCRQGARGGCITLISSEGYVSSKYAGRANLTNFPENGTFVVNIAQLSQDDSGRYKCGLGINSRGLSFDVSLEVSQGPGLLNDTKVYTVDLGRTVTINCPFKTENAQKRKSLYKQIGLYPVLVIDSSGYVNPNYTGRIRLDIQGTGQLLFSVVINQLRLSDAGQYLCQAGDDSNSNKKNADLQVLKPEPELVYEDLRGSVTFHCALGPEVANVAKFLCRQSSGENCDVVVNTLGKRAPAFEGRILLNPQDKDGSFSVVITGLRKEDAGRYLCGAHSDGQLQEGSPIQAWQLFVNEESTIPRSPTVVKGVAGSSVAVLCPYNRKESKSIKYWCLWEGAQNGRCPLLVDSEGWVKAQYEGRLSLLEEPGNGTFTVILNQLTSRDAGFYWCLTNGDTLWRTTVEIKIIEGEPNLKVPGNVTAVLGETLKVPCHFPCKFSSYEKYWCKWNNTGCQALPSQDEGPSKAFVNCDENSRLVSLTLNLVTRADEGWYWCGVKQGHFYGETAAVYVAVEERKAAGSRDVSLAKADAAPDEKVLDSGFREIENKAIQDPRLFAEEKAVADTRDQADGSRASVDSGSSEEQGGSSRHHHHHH

Row | Binder | Kd [1] | Kd [2] | Kd [3] | Kd [4]
1 | 01H04R3 VHH Mono-Fc (Fc fusion) EVQLVESGGGLVQPGGSLRLSCAASGRTFSSLTMAWFRRAPGKEREFVAAQKWAGATTYTYYGDSVKGRFTISRDNAKDTVYLQMNSLKPVDTAIYYCAADTSSIVGDPRSPNRYDYWGQGTQVTVSSSPAPELLGGPSVFLFPPKPKDTLMISRTPEVTCVVVDVSHEDPEVKFNWYVDGVEVHNAKTKPREEQYNSTYRVVSVLTVLHQDWLNGKEYKCKVSNKALPAPIEKTISKAKGQPREPQVYTKPPSREEMTKNQVSLSCLVKGFYPSDIAVEWESNGQPENNYKTTVPVLDSDGSFRLASYLTVDKSRWQQGNVFSCSVMHEALHNHYTQKSLSLSPGK | 88.2 nM | 101 nM | – | –
2 | 03G07R3 VHH Mono-Fc (Fc fusion) EVQLVESGGGLVQAGDSLRLSCAASGRTLSFDTYAMAWFRQAPGKEREFVASIDYNGGSTDYADSVKGRFTVTRDNAKNTVTLRMNSLKPDDTAVYYCASARYYRSGTSFPVNYWGQGTQVTVSSSPAPELLGGPSVFLFPPKPKDTLMISRTPEVTCVVVDVSHEDPEVKFNWYVDGVEVHNAKTKPREEQYNSTYRVVSVLTVLHQDWLNGKEYKCKVSNKALPAPIEKTISKAKGQPREPQVYTKPPSREEMTKNQVSLSCLVKGFYPSDIAVEWESNGQPENNYKTTVPVLDSDGSFRLASYLTVDKSRWQQGNVFSCSVMHEALHNHYTQKSLSLSPGK | – | 5.58 nM | 2.63 nM | 361 nM
3 | 01G02R2LS VHH Mono-Fc (Fc fusion) QVQLVESGGGLVQAGDSLALSCAGSGDTFSNYAMGWFRQAPGKEREFVADISWYGANIGYADSVKGRFTISRDNAKNMVTLRMNSLKPEDTAVYYCAADRNHWPVKGDYWGQGTQVTVSSSPAPELLGGPSVFLFPPKPKDTLMISRTPEVTCVVVDVSHEDPEVKFNWYVDGVEVHNAKTKPREEQYNSTYRVVSVLTVLHQDWLNGKEYKCKVSNKALPAPIEKTISKAKGQPREPQVYTKPPSREEMTKNQVSLSCLVKGFYPSDIAVEWESNGQPENNYKTTVPVLDSDGSFRLASYLTVDKSRWQQGNVFSCSVMHEALHNHYTQKSLSLSPGK | – | 23.3 nM | – | –
4 | 02B09R3 VHH Mono-Fc (Fc fusion) EVQLVESGGGLVQPGGSLRLSCAASGFTFRTYYMGWFRRAPGKEREFVGVTRSSDDVTYYADSVKGRFTISRDNAKDTVYLQMSRLKPEDTAVYYCAAKPVPITRYSFPQIGEEYDYWGQGTLVTVSSSPAPELLGGPSVFLFPPKPKDTLMISRTPEVTCVVVDVSHEDPEVKFNWYVDGVEVHNAKTKPREEQYNSTYRVVSVLTVLHQDWLNGKEYKCKVSNKALPAPIEKTISKAKGQPREPQVYTKPPSREEMTKNQVSLSCLVKGFYPSDIAVEWESNGQPENNYKTTVPVLDSDGSFRLASYLTVDKSRWQQGNVFSCSVMHEALHNHYTQKSLSLSPGK | – | – | 2.46 nM | 9.51 nM
5 | 01G07R3 VHH Mono-Fc (Fc fusion) QVQLVESGGGLVQAGDSLRLSCAASGRTLSFDTYAMGWFRQAPGKEREFVASIDWSGGTTYYADSVKGRFTVTRDNAKNTVTLRMNSLKPADTAVYYCAAAQYYRSGTSFPANYWGQGTLVTVSSSPAPELLGGPSVFLFPPKPKDTLMISRTPEVTCVVVDVSHEDPEVKFNWYVDGVEVHNAKTKPREEQYNSTYRVVSVLTVLHQDWLNGKEYKCKVSNKALPAPIEKTISKAKGQPREPQVYTKPPSREEMTKNQVSLSCLVKGFYPSDIAVEWESNGQPENNYKTTVPVLDSDGSFRLASYLTVDKSRWQQGNVFSCSVMHEALHNHYTQKSLSLSPGK | – | – | 1.18 nM | 40.8 nM
6 | 01C02R3 VHH Mono-Fc (Fc fusion) QVQLVESGGGLVQAGGSLRLSCAASGLSFSSYTMGWFRQVPGKERELISAIHWSGGPTFYSNSVKGRFTISRDNAKDTVYLQMNSLKPEDTAVYYCTAEPVGSMISPDWTYWGQGTLVTVSSSPAPELLGGPSVFLFPPKPKDTLMISRTPEVTCVVVDVSHEDPEVKFNWYVDGVEVHNAKTKPREEQYNSTYRVVSVLTVLHQDWLNGKEYKCKVSNKALPAPIEKTISKAKGQPREPQVYTKPPSREEMTKNQVSLSCLVKGFYPSDIAVEWESNGQPENNYKTTVPVLDSDGSFRLASYLTVDKSRWQQGNVFSCSVMHEALHNHYTQKSLSLSPGK | – | – | 1.23 nM | 8.43 nM
7 | 01C01R2LS VHH Mono-Fc (Fc fusion) QVQLVESGGGLQQAGGSLRLSCAASGRTVTVMTVGWFRQAPGKEREFVAAITMYGERTYYADSVKGRFTISRDNAKNTVDLQMNSLKPEDAAVYYCAARTYVSGIYDRFDDYNYWGQGTQVTVSSSPAPELLGGPSVFLFPPKPKDTLMISRTPEVTCVVVDVSHEDPEVKFNWYVDGVEVHNAKTKPREEQYNSTYRVVSVLTVLHQDWLNGKEYKCKVSNKALPAPIEKTISKAKGQPREPQVYTKPPSREEMTKNQVSLSCLVKGFYPSDIAVEWESNGQPENNYKTTVPVLDSDGSFRLASYLTVDKSRWQQGNVFSCSVMHEALHNHYTQKSLSLSPGK | – | 11.3 nM | – | –
8 | 01E02R3LS VHH Mono-Fc (Fc fusion) EVQLVESGGGLVETGGSLRLSCAASGRTESTYTMAWFRQAPGKERERVATISFSGSTTTYLASVQGRFTISRDGAKNTIFLQMNGLKPEDTAVYYCALDTRRRVGSSPRFYDYWGQGTLVTVSSSPAPELLGGPSVFLFPPKPKDTLMISRTPEVTCVVVDVSHEDPEVKFNWYVDGVEVHNAKTKPREEQYNSTYRVVSVLTVLHQDWLNGKEYKCKVSNKALPAPIEKTISKAKGQPREPQVYTKPPSREEMTKNQVSLSCLVKGFYPSDIAVEWESNGQPENNYKTTVPVLDSDGSFRLASYLTVDKSRWQQGNVFSCSVMHEALHNHYTQKSLSLSPGK | – | – | 0.6 nM | 0.018 nM
9 | 01H02R3LS VHH Mono-Fc (Fc fusion) QVQLVESGGGLVQPGGSLRLSCAASGSIFSASVMGWYRQGPGKQREFVARISPGGVTHYADSVKGRFTISKDNAKNTVTLQMNSLKPEDTAVYYCNADRFGFEVYWGQGTLVTVSSSPAPELLGGPSVFLFPPKPKDTLMISRTPEVTCVVVDVSHEDPEVKFNWYVDGVEVHNAKTKPREEQYNSTYRVVSVLTVLHQDWLNGKEYKCKVSNKALPAPIEKTISKAKGQPREPQVYTKPPSREEMTKNQVSLSCLVKGFYPSDIAVEWESNGQPENNYKTTVPVLDSDGSFRLASYLTVDKSRWQQGNVFSCSVMHEALHNHYTQKSLSLSPGK | – | – | 3.24 nM | 20.6 nM
10 | 03D12R3 VHH Mono-Fc (Fc fusion) QVQLVESGGGLVQAGGSLRLSCAASGRTFSSYAMGWFRQAPGKEREFAAVITWNGGSTHYADSVKGRFTISRDNAKNTVYLQMNSLKPEDTAVYYCAADPMNSPYWGQGTQVTVSSSPAPELLGGPSVFLFPPKPKDTLMISRTPEVTCVVVDVSHEDPEVKFNWYVDGVEVHNAKTKPREEQYNSTYRVVSVLTVLHQDWLNGKEYKCKVSNKALPAPIEKTISKAKGQPREPQVYTKPPSREEMTKNQVSLSCLVKGFYPSDIAVEWESNGQPENNYKTTVPVLDSDGSFRLASYLTVDKSRWQQGNVFSCSVMHEALHNHYTQKSLSLSPGK | – | – | 0.606 nM | 0.905 nM
11 | 01F04R3LS VHH Mono-Fc (Fc fusion) EVQLVESGGGLVQAGGSLRLSCAASGRTFSRYAMGWFRQAPGKEREFVAAIAWSGGAIYYADFVKGQFTISRDNAKNTVDLEMNRLKPEDTAVYYCGSTRDPRVGDKKFYDYWGQGTQVTVSSSPAPELLGGPSVFLFPPKPKDTLMISRTPEVTCVVVDVSHEDPEVKFNWYVDGVEVHNAKTKPREEQYNSTYRVVSVLTVLHQDWLNGKEYKCKVSNKALPAPIEKTISKAKGQPREPQVYTKPPSREEMTKNQVSLSCLVKGFYPSDIAVEWESNGQPENNYKTTVPVLDSDGSFRLASYLTVDKSRWQQGNVFSCSVMHEALHNHYTQKSLSLSPGK | – | – | 23.8 nM | 236 nM
